This is an account of results in patent US20020132974A1, “BETA SHEET FORMING PEPTIDES AND GELS MADE THEREOF” (priority 1995, published 2002).

Series [1] can be described thus: response of peptide gels to chemical switches (pH, salt, surfactant, solvent). In kind it is physicochemical. From the text:
As mentioned, the gels of the invention are susceptible to chemical triggers which result in changes in the properties of the gels so that they switch from, for example, a first fluid state to a gel state or vica versa.
Addition of salt causes the network to contract and phase separate as a more concentrated gel phase. Changing the polarity of the solvent, ie making it more polar (water) or non-polar ( chloroform), preserves the β-sheet structure, but the gel network is destabilised and precipitation of the peptide occurs. In strong hydrogen-bonding donor solvents (like hexafluoroisopropanol), the peptide adopts an α-helical conformation (FIG. 3b) and there is no gelation. Solvents containing arornatic groups cause destabilisation of β-tapes by 20-30% and disruption of the gels. This is believed to be due to competition between intermolecular peptide aromatic side-chain interactions and the aromatic groups of the solvent Acetylation at the N-terminus and amination at the C-temiinus of the 27-residue peptide results in a preference for the a-helical conformation and gels are not formed. It seems that favourable interactions between β-nanotapes and solvent are important for gel stabilisation. By appropriate peptide design, peptides can be produced which will form nanotapes and gels in a variety of solvents, including water. For example, peptides derived from the Drosophila Toll receptor protein, from the Alzheimer amyloid peptide and from desmin filaments and from the β-domain of the leu lysozyme (SER-1). Chemical switches also include changes in pH, for example, the hydrophilic peptide AcNH-Gln-Ala-Thr-Asn-Arg-Asn-Thr-AspGly-Ser-Thr-AspTyr-Gly-Ile-Leu-Gin-Ile-Asn-Ser-Arg-CONH2 (SER-1) forms a gel at neutral and acidic pH, whilst it switches to a neutonial fluid at pH higher than 11.

Series [2] in a line: gel and β-tape formation of peptides in solvents. The class given is physicochemical. From the text:
Compatibility of the β-sheet surface and the solvent are also essential for gelation as opposed to peptide precipitation out of solution. For example, K24 forms β-tapes with both polar and apolar groups on their surfaces. Thus, they can form gels in solvents with intermediate polarity, corresponding to values of relative dielectric constants, εγ=εr=24-62.
In organic solvents such as ethanol, methanol and 2-chloroethanol we have discovered that the aforementioned peptide sequences self-assemble to provide elongated tapes approximately 8 nm wide and a single molecule in thickness.

Take “NH2-Lys-Leu-Glu-Ala-Leu-Tyr-Ile-Leu-Met-Val-Leu-Cly-Phe-Phe-Gly-Phe-Phe-Thr-Leu-Gly-Ie-Met-Leu-Ser-Tyr-Ile-Arg-CO2H [K27]”: in series [1] (addition of 50% v 1,1,1,3,3,3-hexafluoropropanol-2), the “effect of added 1,1,1,3,3,3-hexafluoropropanol-2 on the gel” value is “destroys the gel”. Further, the “effect of added water on the gel” value in series [1] (addition of 50% v water) is reported as “destroys the gel”. Besides, the “effect of sodium dodecylsulfate (SDS) on the gel” value in series [1] (molar ratio 1 K27-350 SDS) is “destroys the gel”.

Consider “NH2-Lys-Leu-Glu-Ala-Leu-Tyr-Val-Leu-Gly-Phe-Phe-Gly-Phe-Phe-Thr-Leu-Gly-Be-Met-Leu-Ser-Tyr-Rle-Arg-CO2H [K24]”, for which the “effect of lithium chloride on the gel” value in series [1] (molar ratio 1 peptide-7 lithium chloride) is recorded as “contracts”. For the same substance, the “drop of the fraction of β-sheet structure” value in series [1] (solvents containing aromatic groups) was 20-30%. In series [2] (polarity above or below dielectric constant 24-62, β-sheet structures poorly soluble, precipitate), the “gel formation in solvents of higher or lower polarity” value is on record as “gel is not formed”. Further, the “relative dielectric constant of solvents in which gels are formed” value in series [2] (solvents or solvent mixtures of intermediate polarity) is listed as 24-62.
